Measured values from paper PMC3564526 (Molecular Biology of the Cell, 2013).

Target: T1, PH^Ste5 domain (Ste5 aa 373–537), bacterially expressed and purified (S. cerevisiae, UniProt P32917 373-537)
T1 sequence (looked up): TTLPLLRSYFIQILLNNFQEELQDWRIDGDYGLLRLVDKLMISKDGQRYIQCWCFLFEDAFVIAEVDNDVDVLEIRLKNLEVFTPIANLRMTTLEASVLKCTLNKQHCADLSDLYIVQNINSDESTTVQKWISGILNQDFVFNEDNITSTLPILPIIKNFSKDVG
Assay: SPR

B1: His-tagged RBL^Ste11 domain (Ste11 aa 116–236) (domain or fragment, S. cerevisiae, UniProt P23561 116-236, looked up)
chain: PEKHCVIFILNDGSAKKVNVNGCFNADSIKKRLIRRLPHELLATNSNGEVTKMVQDYDVFVLDYTKNVLHLLYDVELVTICHANDRVEKNRLIFVSKDQTPSDKAISTSKKLYLRTLSALS
B1 was tested, and the Kd was ~200 nM.
